From patent US20220033505A1 (Janssen / Centocor, published 2022)

B1: HC3B232 (CD3W246-LH-scFv-Fc x MHGB732-Fab-Fc) (bispecific antibody, human IgG1, kappa, L234A L235A)
scFv: DIQMTQSPSSLSASVGDRVTITCRARQSIGTAIHWYQQKPGKAPKLLIKYASESISGVPSRFSGSGSGTDFTLTISSVQPEDFATYYCQQSGSWPYTFGQGTKLEIKGGSEGKSSGSGSESKSTGGSEVQLVESGGGLVKPGGSLRLSCAASGFTFSRYNMNWVRQAPGKGLEWVSSISTSSNYIYYADSVKGRFTFSRDNAKNSLDLQMSGLRAEDTAIYYCTRGWGPFDYWGQGTLVTVSSEPKSSDKTHTCPPCPAPEAAGGPSVFLFPPKPKDTLMISRTPEVTCVVVSVSHEDPEVKFNWYVDGVEVHNAKTKPREEQYNSTYRVVSVLTVLHQDWLNGKEYKCKVSNKALPAPIEKTISKAKGQPREPQVYVYPPSREEMTKNQVSLTCLVKGFYPSDIAVEWESNGQPENNYKTTPPVLDSDGSFALVSKLTVDKSRWQQGNVFSCSVMHEALHNHYTQKSLSLSPGK
heavy: QVQLQQSGPGLVKPSQTLSLTCAISGDSVSSNSAAWNWIRQSPSRGLEWLGRTYYRSKWYNDYAVSVKSRITINPDTSKNQISLQLNSVTPEDTAVYYCAGDRRYGIVGLPFAYWGQGTLVTVSSASTKGPSVFPLAPSSKSTSGGTAALGCLVKDYFPEPVTVSWNSGALTSGVHTFPAVLQSSGLYSLSSVVTVPSSSLGTQTYICNVNHKPSNTKVDKKVEPKSCDKTHTCPPCPAPEAAGGPSVFLFPPKPKDTLMISRTPEVTCVVVSVSHEDPEVKFNWYVDGVEVHNAKTKPREEQYNSTYRVVSVLTVLHQDWLNGKEYKCKVSNKALPAPIEKTISKAKGQPREPQVYVLPPSREEMTKNQVSLLCLVKGFYPSDIAVEWESNGQPENNYLTWPPVLDSDGSFFLYSKLTVDKSRWQQGNVFSCSVMHEALHNHYTQKSLSLSPG
light: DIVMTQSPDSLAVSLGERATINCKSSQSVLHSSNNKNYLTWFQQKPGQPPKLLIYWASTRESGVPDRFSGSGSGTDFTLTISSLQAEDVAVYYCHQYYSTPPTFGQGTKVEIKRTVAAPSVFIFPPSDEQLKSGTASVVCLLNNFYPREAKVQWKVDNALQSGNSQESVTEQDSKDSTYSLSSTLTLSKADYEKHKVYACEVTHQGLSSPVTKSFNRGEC
B2: HC3B231 (CD3B450-LH-scFv-Fc x MHGB732-Fab-Fc) (bispecific antibody, human IgG1, kappa, L234A L235A)
scFv: QSALTQPASVSGSPGQSITISCTGTSSNIGTYKFVSWYQQHPGKAPKVMIYEVSKRPSGVSNRFSGSKSGNTASLTISGLQAEDEADYYCVSYAGSGTLLFGGGTKLTVLGGSEGKSSGSGSESKSTGGSQVQLQQSGPGLVKPSQTLSLTCAISGDSVFNNNAAWSWIRQSPSRGLEWLGRTYYRSKWLYDYAVSVKSRITINPDTSKNQFSLQLNSVTPEDTAVYYCARGYSSSFDYWGQGTLVTVSSEPKSSDKTHTCPPCPAPEAAGGPSVFLFPPKPKDTLMISRTPEVTCVVVSVSHEDPEVKFNWYVDGVEVHNAKTKPREEQYNSTYRVVSVLTVLHQDWLNGKEYKCKVSNKALPAPIEKTISKAKGQPREPQVYVYPPSREEMTKNQVSLTCLVKGFYPSDIAVEWESNGQPENNYKTTPPVLDSDGSFALVSKLTVDKSRWQQGNVFSCSVMHEALHNHYTQKSLSLSPG
heavy: B1 heavy
light: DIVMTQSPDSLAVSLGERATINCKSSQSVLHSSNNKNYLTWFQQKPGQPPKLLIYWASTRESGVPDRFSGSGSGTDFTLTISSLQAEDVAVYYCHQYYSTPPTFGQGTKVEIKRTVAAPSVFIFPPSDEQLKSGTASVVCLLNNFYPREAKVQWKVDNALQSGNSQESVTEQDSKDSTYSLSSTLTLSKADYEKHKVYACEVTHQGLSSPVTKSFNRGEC
B3: HC3B238 (CD3W246-HL-scFv-Fc x MHGB738-Fab-Fc) (bispecific antibody, human IgG1, kappa, L234A L235A)
scFv: EVQLVESGGGLVKPGGSLRLSCAASGFTFSRYNMNWVRQAPGKGLEWVSSISTSSNYIYYADSVKGRFTFSRDNAKNSLDLQMSGLRAEDTAIYYCTRGWGPFDYWGQGTLVTVSSGGSEGKSSGSGSESKSTGGSDIQMTQSPSSLSASVGDRVTITCRARQSIGTAIHWYQQKPGKAPKLLIKYASESISGVPSRFSGSGSGTDFTLTISSVQPEDFATYYCQQSGSWPYTFGQGTKLEIKEPKSSDKTHTCPPCPAPEAAGGPSVFLFPPKPKDTLMISRTPEVTCVVVSVSHEDPEVKFNWYVDGVEVHNAKTKPREEQYNSTYRVVSVLTVLHQDWLNGKEYKCKVSNKALPAPIEKTISKAKGQPREPQVYVYPPSREEMTKNQVSLTCLVKGFYPSDIAVEWESNGQPENNYKTTPPVLDSDGSFALVSKLTVDKSRWQQGNVFSCSVMHEALHNHYTQKSLSLSPG
heavy: QVQLQQSGPGLVKPSQTLSLTCAISGDSVSSNRAAWNWIRQSPSRGLEWLGRTYYRSKWYNDYAVSVKSRITINPDTSKNQISLQLNSVTPEDTAVYYCARVRPGIPFDYWGQGTPVTVSSASTKGPSVFPLAPSSKSTSGGTAALGCLVKDYFPEPVTVSWNSGALTSGVHTFPAVLQSSGLYSLSSVVTVPSSSLGTQTYICNVNHKPSNTKVDKKVEPKSCDKTHTCPPCPAPEAAGGPSVFLFPPKPKDTLMISRTPEVTCVVVSVSHEDPEVKFNWYVDGVEVHNAKTKPREEQYNSTYRVVSVLTVLHQDWLNGKEYKCKVSNKALPAPIEKTISKAKGQPREPQVYVLPPSREEMTKNQVSLLCLVKGFYPSDIAVEWESNGQPENNYLTWPPVLDSDGSFFLYSKLTVDKSRWQQGNVFSCSVMHEALHNHYTQKSLSLSPG
light: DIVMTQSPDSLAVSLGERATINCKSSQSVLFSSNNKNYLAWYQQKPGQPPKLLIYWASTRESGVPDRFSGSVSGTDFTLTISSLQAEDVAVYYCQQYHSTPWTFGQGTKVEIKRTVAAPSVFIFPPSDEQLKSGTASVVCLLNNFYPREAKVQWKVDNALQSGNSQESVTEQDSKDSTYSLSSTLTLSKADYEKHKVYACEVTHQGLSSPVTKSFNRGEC
B4: HC3B236 (CD3B450-LH-scFv-Fc x MHGB738-Fab-Fc) (bispecific antibody, human IgG1, kappa, L234A L235A)
scFv: B2 scFv
heavy: B3 heavy
light: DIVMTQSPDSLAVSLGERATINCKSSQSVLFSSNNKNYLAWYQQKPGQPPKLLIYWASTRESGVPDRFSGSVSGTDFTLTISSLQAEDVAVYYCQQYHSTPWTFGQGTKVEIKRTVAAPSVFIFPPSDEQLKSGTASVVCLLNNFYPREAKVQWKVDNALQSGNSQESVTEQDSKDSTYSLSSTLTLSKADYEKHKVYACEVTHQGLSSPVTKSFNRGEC
B5: HC3B235 (CD3B219-LH-scFv-Fc x MHGB738-Fab-Fc) (bispecific antibody, human IgG1, kappa, L234A L235A)
scFv: QTVVTQEPSLTVSPGGTVTLTCRSSTGAVTTSNYANWVQQKPGQAPRGLIGGTNKRAPGTPARFSGSLLGGKAALTLSGVQPEDEAEYYCALWYSNLWVFGGGTKLTVLGGSEGKSSGSGSESKSTGGSEVQLVESGGGLVQPGGSLRLSCAASGFTFNTYAMNWVRQAPGKGLEWVARIRSKYNNYATYYAASVKGRFTISRDDSKNSLYLQMNSLKTEDTAVYYCVRHGNFGNSYVSWFAYWGQGTLVTVSSEPKSSDKTHTCPPCPAPEAAGGPSVFLFPPKPKDTLMISRTPEVTCVVVSVSHEDPEVKFNWYVDGVEVHNAKTKPREEQYNSTYRVVSVLTVLHQDWLNGKEYKCKVSNKALPAPIEKTISKAKGQPREPQVYVYPPSREEMTKNQVSLTCLVKGFYPSDIAVEWESNGQPENNYKTTPPVLDSDGSFALVSKLTVDKSRWQQGNVFSCSVMHEALHNHYTQKSLSLSPG
heavy: B3 heavy
light: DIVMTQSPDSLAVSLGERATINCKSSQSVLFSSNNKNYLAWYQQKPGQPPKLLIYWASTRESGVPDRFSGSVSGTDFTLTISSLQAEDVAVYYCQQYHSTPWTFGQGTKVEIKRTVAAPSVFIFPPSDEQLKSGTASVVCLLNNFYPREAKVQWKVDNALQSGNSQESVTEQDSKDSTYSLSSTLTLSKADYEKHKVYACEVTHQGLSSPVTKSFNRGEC
B6: HC3B237 (CD3W246-LH-scFv-Fc x MHGB738-Fab-Fc) (bispecific antibody, human IgG1, kappa, L234A L235A)
scFv: B1 scFv
heavy: B3 heavy
light: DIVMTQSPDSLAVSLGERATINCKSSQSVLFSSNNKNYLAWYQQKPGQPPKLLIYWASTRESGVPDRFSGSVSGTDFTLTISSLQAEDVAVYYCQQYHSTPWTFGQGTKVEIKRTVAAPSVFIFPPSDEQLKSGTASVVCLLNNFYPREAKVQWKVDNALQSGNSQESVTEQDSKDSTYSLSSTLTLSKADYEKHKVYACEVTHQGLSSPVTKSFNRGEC

Each binder was assayed against HLA-G on NCI-H2009-b2m target cells (human, UniProt P17693 25-338) (assay: cell-based or functional assay).

Binder	Cytotoxicity, EC50 (M); T cell-mediated cytotoxicity against NCI-H2009-b2m cells, 72 hr, E:T 3:1
B1	6.77e-12 M
B2	1.26e-10 M
B3	1.73e-11 M
B4	4.54e-09 M
B5	8.37e-11 M
B6	1.33e-10 M
